Assay results taken from IntAct's records for PubMed 25281559.

B1: Casein kinase I homolog HRR25 (Saccharomyces cerevisiae), P29295 (parent)
chain: MDLRVGRKFRIGRKIGSGSFGDIYHGTNLISGEEVAIKLESIRSRHPQLDYESRVYRYLSGGVGIPFIRWFGREGEYNAMVIDLLGPSLEDLFNYCHRRFSFKTVIMLALQMFCRIQYIHGRSFIHRDIKPDNFLMGVGRRGSTVHVIDFGLSKKYRDFNTHRHIPYRENKSLTGTARYASVNTHLGIEQSRRDDLESLGYVLIYFCKGSLPWQGLKATTKKQKYDRIMEKKLNVSVETLCSGLPLEFQEYMAYCKNLKFDEKPDYLFLARLFKDLSIKLEYHNDHLFDWTMLRYTKAMVEKQRDLLIEKGDLNANSNAASASNSTDNKSETFNKIKLLAMKKFPTHFHYYKNEDKHNPSPEEIKQQTILNNNAASSLPEELLNALDKGMENLRQQQPQQQVQSSQPQPQPQQLQQQPNGQRPNYYPEPLLQQQQRDSQEQQQQVPMATTRATQYPPQINSNNFNTNQASVPPQMRSNPQQPPQDKPAGQSIWL
partner: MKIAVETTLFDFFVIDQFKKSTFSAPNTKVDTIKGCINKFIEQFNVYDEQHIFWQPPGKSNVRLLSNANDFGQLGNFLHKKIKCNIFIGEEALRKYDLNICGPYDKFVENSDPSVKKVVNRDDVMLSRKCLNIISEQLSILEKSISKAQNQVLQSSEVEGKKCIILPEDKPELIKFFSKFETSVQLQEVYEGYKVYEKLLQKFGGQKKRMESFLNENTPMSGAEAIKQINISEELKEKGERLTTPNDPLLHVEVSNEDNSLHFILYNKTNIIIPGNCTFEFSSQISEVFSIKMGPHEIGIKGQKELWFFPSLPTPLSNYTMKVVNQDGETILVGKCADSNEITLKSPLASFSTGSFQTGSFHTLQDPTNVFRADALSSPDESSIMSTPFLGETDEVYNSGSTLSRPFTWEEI

Variants of: B1
Conditions: with atg34_yeast ATG34, Q12292

effect of a mutation on the interaction | Variant
disrupting interaction | MDLRVGRKFRIGRKIGSGSFGDIYHGTNLISGEEVAIALESIRSRHPQLDYESRVYRYLSGGVGIPFIRWFGREGEYNAMVIDLLGPSLEDLFNYCHRRFSFKTVIMLALQMFCRIQYIHGRSFIHRDIKPDNFLMGVGRRGSTVHVIDFGLSKKYRDFNTHRHIPYRENKSLTGTARYASVNTHLGIEQSRRDDLESLGYVLIYFCKGSLPWQGLKATTKKQKYDRIMEKKLNVSVETLCSGLPLEFQEYMAYCKNLKFDEKPDYLFLARLFKDLSIKLEYHNDHLFDWTMLRYTKAMVEKQRDLLIEKGDLNANSNAASASNSTDNKSETFNKIKLLAMKKFPTHFHYYKNEDKHNPSPEEIKQQTILNNNAASSLPEELLNALDKGMENLRQQQPQQQVQSSQPQPQPQQLQQQPNGQRPNYYPEPLLQQQQRDSQEQQQQVPMATTRATQYPPQINSNNFNTNQASVPPQMRSNPQQPPQDKPAGQSIWL [K38A]
